Source: publication PMC10980356 (The Plant Cell, 2023)

B1: CLuc-EXO70H4 (natural protein)
chain: MMTRKAMINICCVATTPSKYPPPPPLTLTPRQSLESAAIYGVIESAADIIERWNTETNTFAKVTCMFYENKPEAMMFIERVKDLQKTMDVLVSEDPNSERLLRSHKLMQIAMKRLQKEFYQILSMNRAYLDPESVSTRSSLTSARSSYSDFPDYVEDLDTIIELEEVSTNVMTDLKSIAECMIGSGYAKECLSIYKSIRKSIIDEGIYRLEVEKTSTGKVKKMSWEVMELKIRSWLKAVKVSMETLFKGEKILCDHVFESSDAIRESCFSDISRDGALLLFGFPEIINTKTSKKHSPPEKVFRLLDMYTAIAGNWQAIESIFSFDSISVVRSLALKSLISLSESIRSLLVEFESGIQKDSSKVVVPGGGVHPLTISVMDHLSLLADYSNVLVDILAGSPPPDRSLLPESYFNVSESDDSPSSELTIRFAWIILVLLCKIDRKSIHYKDFSIQYLFLTNNLQHVVSRARSSNLKNLLGEDWITRHFAKMRQFAGSYKRLAWGPVVATLPENRTVEMTPEEVKERFEKFSESFENAYSKHSVCVVADPNIRDEIKVSISRKLVPIYREFYNTRGSVILGEGDGARNLNSVVRFTPEDIENYLSDLFREKGSSGNSSASSPSSCRSRQSMS
B2: CLuc-EXO70H1 (natural protein)
chain: MAKMAKFSFFSSSSPKYHPSSPSSFTSFPASPLNQNFTQAMMEETVETADSVIRKWDPNTPSFTKIVSLFNHSRKEAKEFIRCVRDLRRAMHFLVSQDSQSPKLALAQTLMQIAMARLEKEFFQILSSNRDKLDPESVSGQSSISSNSEFEDVMGSDDDDESDNEMRKAGESITQVEKASAMVMSDLKAIAESMISCGYGKECVKIYKRVRKSIVDEGLSLLGIEIYKGSRFHRTDWVTLEHMIKNWIKAAKIGIATLFRGEKLLCDHVFSASNSTRESCFYEIANEAATNLFKFPEFVAKEKKSHERIFPLMDLQAAISDLWQDIEMIFHFDAVAGVKSQALTSLQKLKVSIHSALTDFESIIQKDTTKALTPGGGIHKLTRSTMNFISSLSKYSGVLSEILADHPLPRNTRLLESYVRAPISEDEQHNHALSVHFAWLILVLLCKLDTKAEHYKDVSLSYLFLANNLQIIIETVGSTPLRNLLGDDWLNKHEDKLCAYAGNYEIAAWSNVFMSLPEEPTDLSPEEAKIYFRRFHTAFEEAYMKQSSRVVPNAKLRDELKVSIAKKLVPEYREFYRKYLPMLGQERNIEILVRFKPDNLENYISDLFHGTPIHASSSFSSSSSSSSWKSLGCVSG
B3: CLuc-EXO70B2 (natural protein)
chain: MAEAGDENLYAAARDIARALGKDPSAAGDILQILSGYGASGNRGGDPRPTPSRGGSNVNFDRALTSLERQISSYIVEDRPIWSDPVDSRTFLDSVDELLAIAGDLRSMAGDKSVAVCQSRADELIQQVMFRLQEEFGFVMDRAPDSFDSDDEFPGEEDNDTSDGVIVARPITDYKIVIEALQSSVIGDLNAIAVRMVAGGFAKECSRVYSSRRREFLEESLSRLHLRGLSMEEVQESPWQDLEDEIDRWIKAVTLIFHVFFPSERLLCDRVFSDLPVSSVTDLSFMEVCRGTTTQLLNFADAIALGSRLPERLFKVVDLYEAMQDLIPKMETLFSDRYCSPLRHEALAIHKRLGEAIRGIFMELENLIRRDPPKTAFPGGGIHPITRYVMNYLRAACKSRQSLEQILDQTGNETGSDTRPLSVQIIWVLELLESNLEGKKRTYRDPSLCFLFMMNNDKYILDKAKDNELGLVLGEDWIVKHAAKLRQYHSNYRRSSWNQVVGLLRTDGPYPKLVENLRLFKSQFDEVCKVQSQWVVSDGQLREELRSSVAGIVSPAYSNFIRRLKESPEINGRRGEPFIPYTVEDVEFIIKRLFKESSS

What was measured:
Test in all cases: split reporter
[1] = molecular target: T1, MLO6-NLuc (A. thaliana, UniProt Q94KB7 1-583)
T1 sequence: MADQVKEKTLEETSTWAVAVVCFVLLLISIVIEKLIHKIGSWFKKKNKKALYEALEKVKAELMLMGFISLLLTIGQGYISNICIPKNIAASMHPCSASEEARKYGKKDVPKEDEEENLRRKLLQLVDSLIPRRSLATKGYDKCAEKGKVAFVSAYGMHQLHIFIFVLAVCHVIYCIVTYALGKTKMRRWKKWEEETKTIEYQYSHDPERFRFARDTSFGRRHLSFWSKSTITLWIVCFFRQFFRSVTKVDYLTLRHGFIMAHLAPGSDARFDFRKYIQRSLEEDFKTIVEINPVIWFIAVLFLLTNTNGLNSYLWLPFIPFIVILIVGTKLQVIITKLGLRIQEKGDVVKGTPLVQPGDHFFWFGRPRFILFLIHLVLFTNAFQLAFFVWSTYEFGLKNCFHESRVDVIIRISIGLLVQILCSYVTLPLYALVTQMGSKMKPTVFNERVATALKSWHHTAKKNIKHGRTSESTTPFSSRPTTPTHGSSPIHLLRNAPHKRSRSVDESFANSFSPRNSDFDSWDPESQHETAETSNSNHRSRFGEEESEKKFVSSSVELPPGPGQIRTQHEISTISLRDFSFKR

[2] = molecular target: T2, MLO2-NLuc (A. thaliana, UniProt Q9SXB6 1-573)
T2 sequence: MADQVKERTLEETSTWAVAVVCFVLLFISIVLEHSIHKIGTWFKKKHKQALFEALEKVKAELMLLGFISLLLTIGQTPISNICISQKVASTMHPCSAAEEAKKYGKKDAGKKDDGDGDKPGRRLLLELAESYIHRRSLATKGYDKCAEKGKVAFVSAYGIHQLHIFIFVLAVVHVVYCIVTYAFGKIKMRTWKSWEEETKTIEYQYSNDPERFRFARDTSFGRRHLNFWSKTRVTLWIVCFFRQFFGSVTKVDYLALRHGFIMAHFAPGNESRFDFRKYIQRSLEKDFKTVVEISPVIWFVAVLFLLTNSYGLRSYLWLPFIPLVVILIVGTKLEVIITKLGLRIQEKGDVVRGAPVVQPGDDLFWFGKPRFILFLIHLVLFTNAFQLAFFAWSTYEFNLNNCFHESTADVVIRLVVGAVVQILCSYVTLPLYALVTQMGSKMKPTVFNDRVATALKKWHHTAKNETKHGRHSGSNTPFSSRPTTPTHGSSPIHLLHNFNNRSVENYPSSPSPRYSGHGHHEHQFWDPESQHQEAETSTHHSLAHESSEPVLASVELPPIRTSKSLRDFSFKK

[3] = molecular target: T3, MLO12-NLuc (A. thaliana, UniProt O80961 1-576)
T3 sequence: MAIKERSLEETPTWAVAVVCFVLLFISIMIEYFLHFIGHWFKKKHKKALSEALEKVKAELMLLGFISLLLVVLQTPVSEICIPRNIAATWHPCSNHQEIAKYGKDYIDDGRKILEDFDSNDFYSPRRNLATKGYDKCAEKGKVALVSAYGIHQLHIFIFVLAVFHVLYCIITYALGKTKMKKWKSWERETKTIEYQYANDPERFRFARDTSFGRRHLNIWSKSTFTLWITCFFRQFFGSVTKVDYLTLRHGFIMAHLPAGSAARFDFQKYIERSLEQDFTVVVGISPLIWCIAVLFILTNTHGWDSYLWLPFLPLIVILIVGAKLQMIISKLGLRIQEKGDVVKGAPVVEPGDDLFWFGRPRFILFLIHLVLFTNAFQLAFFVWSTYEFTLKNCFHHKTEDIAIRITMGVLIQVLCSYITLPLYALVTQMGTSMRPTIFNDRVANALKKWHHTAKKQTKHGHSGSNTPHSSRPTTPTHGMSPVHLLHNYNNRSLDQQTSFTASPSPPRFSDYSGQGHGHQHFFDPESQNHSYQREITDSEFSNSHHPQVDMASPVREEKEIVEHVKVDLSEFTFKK

| Binder | relative luminescence (in relation to the calmodulin positive control) [1] | relative luminescence (in relation to the calmodulin positive control) [2] | relative luminescence (in relation to the calmodulin positive control) [3] |
| --- | --- | --- | --- |
| B1 | ~0.67 | ~0.4 |  |
| B2 |  | ~0.39 | ~0.37 |
| B3 |  | ~0.56 |  |
